Assay results: CN112457402A (BEIJING NIUAMBO BIOTECHNOLOGY CO LTD, dated 2021)
Residue numbers refer to the chain shown, from its start.

T1: Human CEACAM6 Protein, Human, Recombinant (His Tag) (human, UniProt P40199 35-320, biotinylated in Example 6 (Bio-CEACAM6), site not stated)
T1 construct: Bought recombinant antigen; also called CEACAM6抗原; 人CEACAM6抗原
T1 sequence (looked up): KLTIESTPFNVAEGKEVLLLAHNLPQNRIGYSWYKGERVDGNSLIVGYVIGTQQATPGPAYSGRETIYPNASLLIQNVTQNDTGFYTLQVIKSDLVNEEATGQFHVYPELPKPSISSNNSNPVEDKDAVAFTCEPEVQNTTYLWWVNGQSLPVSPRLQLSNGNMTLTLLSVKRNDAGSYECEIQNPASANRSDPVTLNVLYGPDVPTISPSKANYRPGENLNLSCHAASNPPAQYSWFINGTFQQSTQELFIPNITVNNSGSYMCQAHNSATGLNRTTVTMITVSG

B1: 单域抗体NBC4 (VHH)
VHH: HVQLVESGGGLVQAGGSLRLSCAVSGSIFSNDVMGWYRQAPGKQRELVAFITNGGVAHSKDPEKGRFTISRDNGKNTVYLQMNSLKPDDTAVYYCNVRSLVERSREYWGQGTQVTVSS
B2: 单域抗体NBC6 (VHH)
VHH: B1 VHH with H1Q, Q3K, V5E, G54E, E63V
B3: 单域抗体NBC5 (VHH)
VHH: QVKLEESGGGLVQAGGSLRLSCAASGDIDRNDVMHWYRQAPGKQRELVAWIANNGATNYADSVKGRFTISRDNAKNTVYLQMNSLKPEDTAVYYCNVRSLVRRSRDYWGQGTQVTVSS

target: T1, Human CEACAM6 Protein, Human, …; assay: phage ELISA, phage-displayed VHH supernatant on coated CEACAM6

binding result	Binder
binds	B1
binds	B2
binds	B3
